In patent US20040223972A1 (FUNCTIONAL GENETICS, published 2004):

Target: biotinylated peptide Bio-…

B1: purified TSG101 protein that contains only the UEV domain, Q99816 1-145 (protein)
chain: MAVSESQLKKMVSKYKYRDLTVRETVNVITLYKDLKPVLDSYVFNDGSSRELMNLTGTIPVPYRGNTYNIPICLWLLDTYPYNPPICFVKPTSSMTIKTGKHVDANGKIYLPYLHEWKHPQSDLLGLIQVMIVVFGDEPPVFSRP
Kd: 2 µM
